Data on 16 sequences can be found in the nanobody polyreactivity screen of Harvey et al. (2022).

This series is described as follows: yeast display, Sf9 membrane polyspecificity reagent, FACS + sequencing; frameworks hold sequencing errors. A digest of the protocol: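 A nanobody's polyreactivity label depends on the gate it was sorted from. Yeast display cells were stained with 10% biotinylated, detergent-solubilized Sf9 membrane reagent for 1 hour at 4 °C, enriched on streptavidin microbeads and sorted by FACS. The low and high (top ~1%) gates were set on anti-HA fluorescence for expression and streptavidin fluorescence for reagent binding.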
Consider “QVQLVESGGGLVQAGGSLRLTCAASGGIFRPNAMGWYRPAPGKERELVASIDDGDSTNYADSVKGPFTISRDNAKNTVSLQMNSLKPEDTAVYYFAAEQGYTVIYDYWGQGSQVTVSS”, for which the “polyreactivity (PSR sort gate)” value was “low polyreactivity”.
The value for “QVQLVESGGGLVQAGGSLRLTCAASGGISLYYVMGWYRQAPGKERELVADISGDDSTNYADSVKGRFTISRDNAKNTVYLQMNSLKPEDTAVYYCAAVPGLFYLPYDYWGQGTQVTVSS” was “low polyreactivity”; that for “QVQLVESGGGLVQAGGSLRLTCAASGGTFRRYTMGWYRQAPGKERELVAVISRSGGSTYYADSVKGRFTISRDNAKNTVYLQMNRLKPEDTAVYYCAVVYYNGYDWGQGTQVTVSS” was “high polyreactivity”; that for “QVQLVESGGGLVQAGGSLRLTCAASGIIFSYNAMGWYRQAPGKERELVAAIRWSGDSTYYADSVKGRFTISRDIAKNTVYLQMNSMKPEDTAVYYCAAEFFLSYPRYEYWGQGTQVTVSS” was “low polyreactivity”.
For the sequence “QVQLVESGGGLVQAGGSLRLTCAASGITFGDYALGWYRQAPGKERELVAAITRRSGNTRYADSVKGRFTISRDNAKNTVYLQMNSLKPEDTAVYYCNARWFSYARGFENGYWGQGTQVTVSS”, the “polyreactivity (PSR sort gate)” value is “high polyreactivity”.
Turning to “QVQLVESGGGLVQAGGSLRLTCAASGITFISYAMGWYIQAPGKERELVAAITKSGGRTYYADSVKGRFTISRDNAKKTVYLQMNSLKPEDTAVYYCAAYHLRDNRIGGGYWGQGTQVTVSS”, the “polyreactivity (PSR sort gate)” value is given as “high polyreactivity”.
In the case of “QVQLVESGGGLVQAGGSLRLTCAASGITFYGYAMGWYRQAPGKERELVAAISKSGGSTHYADSVKGRFTISRDNAKNTVYLQMNSLKPEDTAVYYCAAAYWTRLRRMDYWGQGTQVTVSS”, the “polyreactivity (PSR sort gate)” value is listed as “low polyreactivity”.
For “QVQLVESGGGLVQAGGSLRLTCAASGLIFARNAMGWYRQAPGKDRELVAAISSSGNTYADSVKGRFTISRDNAKNTVYLHMNSLKPEDTAVYYCNAVRRIRVTSTYDYWGQGTQVTVSS”, the “polyreactivity (PSR sort gate)” value is reported as “high polyreactivity”.
Regarding “QVQLVESGGGLVQAGGSLRLTCAASGLIFRRYAMGWYRQAPGKERELVAAINTSGGSTYYADSVKGRFTISRDNAKNTVYLQMNSLKPEDSAVSYCNTVSPYKYDWGKGTQVTVSS”, the “polyreactivity (PSR sort gate)” value is given as “low polyreactivity”.
For the sequence “QVQLVESGGGLVQAGGSLRLTCAASGLILYWYAMGLYRQAPGTEMELVAAISISGGSTYYADSVKGRFTISRDNAKNTVYLQMNSLKPEDTAVYYCAAVYFYSWEGDGDYWGQGTQVTVSS”, the “polyreactivity (PSR sort gate)” value is “low polyreactivity”.
Turning to “QVQLVESGGGLVQAGGSLRLTCAASGLTFLVYALGWYRQEPGKEWEFVATISKSGGRTYYADSVKGRFTISRDNAKNTVYVQMNSLKPEHTAVDYCAAKGYPYGRLWCGYYRYDYWGQGTQVTVSS”, the “polyreactivity (PSR sort gate)” value is reported as “high polyreactivity”.
Turning to “QVQLVESGGGLVQAGGSLRLTCAASGLTFNHNAMGWCRQAPGKERELVAAISRRGGSTYYADSVKGRFTISRDNAKNTVYLQMNSLKPEDTAVYYCAARRAWSWKIYDYWGQGTQVTVSS”, the “polyreactivity (PSR sort gate)” value is “high polyreactivity”.
Consider “QVQLVESGGGLVQAGGSLRLTCAASGLTFNYYAMGWYRQAPGKERELVAAISSDGRTDYADSVKGRFTISRDNAKNTVYLQMNSLKPEDTAVYYCAASWYRWGKSWRQYDYWGQGTQVNVSS”, for which the “polyreactivity (PSR sort gate)” value was “low polyreactivity”.
“QVQLVESGGGLVQAGGSLRLTCAASGLTFSFYAMGWYRQAPGKEWELVAALSKGGGSTSYADSVKGRFTISRDNAKNTFYLQRNSLKPGDTAVYSCAAKDYKAPNKRLYDYWGQGTQVTVSS”: the “polyreactivity (PSR sort gate)” value is on record as “high polyreactivity”.
For the sequence “QVQLVESGGGLVQAGGSLRLTCAASGNIYLYYAMGWYRQAPGKERELVADIDSSGASTYYADSVKGRFTSSRDNAKNTVYLQMNSLKAEDTAVYYCAAEFHWWYAGYDYGYWGQGTQVTVSS”, the “polyreactivity (PSR sort gate)” value was “low polyreactivity”.
Consider “QVQLVESGGGLVQAGGSLRLTCAASGNTFVSNAMGWYRQAPGKERELVAAIDSGGSTNYADSVKGRFTISRDNAKNTVYLQMNSLKPEDTAVYYCNRTSVYYYYWGQGTQVTVSS”, for which the “polyreactivity (PSR sort gate)” value is recorded as “low polyreactivity”.
